Measurements taken from the RNAGym collection of RNA variant scans (doi:10.1101/gr.219683.116).

B1: mRNA-splicing (parent)
chain: AGUUGCUGCUGGGAGCUCCAGCACAGUGAAAUGGACAGAAGGGCAGAGCAA

Variants of: B1
Experiment: exon inclusion enrichment index; higher = more inclusion; WT1 exon 5 minigene, HEK293

Variant | exon inclusion enrichment index
G5A C6U U7A G8U C9A A47U G48A | 0.0443
C6A U7C C9A U10C U32A G33A | 2.07
C6A U7C C9A U10C G43U C44G | 0.567
G5A U7C U10C | 4.21
G5U G8U C9U C24A A25G | 0.175
G2A | 0.419
G13A A14C | 0.227
C6A U7C C9A U10C G46A | 2.98
G5U G8U C9U C19A A20U | 0.0164
G5A C6G U7G C9A G12A G13U | 0.00417
C6A U7C C9A U10C C22G A23C | 1.74
G5C C6U G8C C9U U10C A37G G38U | 0.627
C6A U7C C9A U10C G48A | 3.5
C6A U7C C9A U10C C44U | 1.32
A47C | 0.293
G5A C6U U7A G8U C9A A45C G46A | 0.0341
G5A C6U U7A G8U C9A A47C G48A | 0.0387
G5C U7G C9A | 1.66
G5C C6A U7C G8A U10A A35G C36G | 0.00494
G5A C6G U7G C9A U32C | 0.00508
G5U G8U C9A U10A | 0.0322

Variant | exon inclusion enrichment index
G34A A35G | 0.0204
G5U G8U C9U G28A A29U | 0.0186
G5C C6U G8C C9G | 3.5
G5C C6G U7C U10C G12A | 2.53
A20C G21A | 1.19
G5C C6A U7C G8A U10A A29C A30C | 0.217
G5C C6A U7C G8A U10A G11A | 0.832
A37C G38A | 0.152
G2A U3C G5C C6U G8C C9U U10C | 2.03
G5A C6U U7A G8U C9A U10C G11A | 0.0351
G5C C6U G8C C9U U10C C19G A20C | 1.8
G46A A47U | 0.185
G5U G8U C9U U27A G28C | 0.109
U3A U4C G5C C6U G8C C9U U10C | 2.23
G5A C6G U7G C9A G38A A39U | 0.00074
G5U G8U C9U C24G | 0.199
C6A U7A C9A U10A G46U A47U | 1.03
G5U G8U C9U U10A G11A | 0.0324
G5U G8U C9U U10A G11C | 0.155
G5A U7C G8A U10C G42A | 3.71
G5A C6G U7G C9A U27C | 0.00674

Variant | exon inclusion enrichment index
G5C C6A G8U C9U | 0.42
G5C C6G U7C U10C G28C A29U | 2.35
G5A C6U U7A G8U C9A A40C | 0.241
G5A U7C G8A U10C U27G | 1.05
G5C C6U G8C C9U U10C A30C | 2.23
G5C C6U G8C C9U U10C C16A U17C | 1.6
C36U | 0.0249
G5A U7C G8A U10C A30U A31C | 2.13
G5C C6U G8C C9U U10C C36U A37C | 1.55
G5C C6A U7C G8A U10A A23G C24G | 0.559
G5C C6A U7C G8A U10A A35U | 0.00802
C6G U7C G8A U10A | 0.0835
G5A C6A C9A | 0.239
G38U | 0.029
C6A U7A C9A U10A A14C G15U | 0.408
C6A U7A C9A U10A G43U | 0.644
G5A C6G U7G C9A G46C A47U | 0.00364
G5U G8U C9U G15U C16A | 0.0344
G5A C6G U7G C9A C24G A25C | 0.00471
G5U G8U C9U A45U G46A | 0.0906
C6A U7C G8A C9U U10C | 2.34

Variant | exon inclusion enrichment index
G5C C6U G8C C9U U10C A40U | 1.67
C6A U7A C9A U10A G21A C22U | 0.235
G5A U7C G8U C9A | 0.658
G5C C6G U7C U10C G34U A35C | 1.66
G5A C6A U7C C9A U10C | 2.47
G26U U27C | 0.588
U4A G5A C6G U7C U10C | 1.18
U4G G5C C6U G8C C9U U10C | 1.14
G5C C6A U7C G8A U10A G34U A35C | 0.0109
A35C | 0.041
G5C C6U G8C C9U U10C A37C | 3.08
G5C C6G U7C U10C G28U A29G | 3.24
G2C U3G G5A U7C G8A U10C | 2.64
U4G C6A U7C G8A U10A | 0.348
G5U G8U C9U G26A U27C | 0.838
G5C C6G U7C U10C G43U C44U | 1.4
G5U G8U C9U C16A U17C | 0.0818
G5A U7C G8A U10C A39U | 0.113
G5C C6G U7C U10C A20G | 0.887
G5A U7C G8A U10C C19A A20U | 0.815
G5U G8U C9U G33U | 0.0674
